The target of experiment [1] is T1, human ABCG2 (human, UniProt Q9UNQ0 1-655).
T1 construct: also called hG2; KPG2
T1 sequence: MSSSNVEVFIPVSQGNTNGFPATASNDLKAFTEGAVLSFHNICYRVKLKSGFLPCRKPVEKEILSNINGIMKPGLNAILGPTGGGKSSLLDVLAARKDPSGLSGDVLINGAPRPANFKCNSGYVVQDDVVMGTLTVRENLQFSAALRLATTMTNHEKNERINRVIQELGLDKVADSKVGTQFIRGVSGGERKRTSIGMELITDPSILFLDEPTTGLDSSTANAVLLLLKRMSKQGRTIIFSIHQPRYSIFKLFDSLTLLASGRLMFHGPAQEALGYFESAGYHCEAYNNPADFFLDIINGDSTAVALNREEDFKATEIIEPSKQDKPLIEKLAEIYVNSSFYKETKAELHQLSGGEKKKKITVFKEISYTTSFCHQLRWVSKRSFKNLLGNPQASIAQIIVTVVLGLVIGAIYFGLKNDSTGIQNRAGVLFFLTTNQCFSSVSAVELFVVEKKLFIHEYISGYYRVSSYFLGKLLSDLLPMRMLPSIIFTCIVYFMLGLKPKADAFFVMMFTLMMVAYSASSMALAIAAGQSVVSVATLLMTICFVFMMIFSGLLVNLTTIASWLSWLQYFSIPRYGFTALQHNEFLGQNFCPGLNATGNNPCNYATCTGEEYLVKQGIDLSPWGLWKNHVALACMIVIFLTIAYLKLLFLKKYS
The experiment is described as follows: flow cytometry titration on 293T_ABCG2_OX cells; column Affinity for human ABCG2 (nM).
Method: (§1) Cell Binding Assays. Antibody binding to cells was evaluated by flow cytometry. […] After incubating cells on ice for 30 min, cells were washed twice with flow cytometry buffer. Bound antibody was detected with PE-labeled F(ab′)₂ fragment goat anti-human IgG (Jackson ImmunoResearch) and evaluated on an Attune NxT flow cytometer.

In experiment [2] the target is T2, cynomolgus ABCG2 (Macaca fascicularis) (Macaca fascicularis (cynomolgus), UniProt Q5MB13 1-654 (rhesus entry)).
T2 construct: also called cABCG2
T2 sequence: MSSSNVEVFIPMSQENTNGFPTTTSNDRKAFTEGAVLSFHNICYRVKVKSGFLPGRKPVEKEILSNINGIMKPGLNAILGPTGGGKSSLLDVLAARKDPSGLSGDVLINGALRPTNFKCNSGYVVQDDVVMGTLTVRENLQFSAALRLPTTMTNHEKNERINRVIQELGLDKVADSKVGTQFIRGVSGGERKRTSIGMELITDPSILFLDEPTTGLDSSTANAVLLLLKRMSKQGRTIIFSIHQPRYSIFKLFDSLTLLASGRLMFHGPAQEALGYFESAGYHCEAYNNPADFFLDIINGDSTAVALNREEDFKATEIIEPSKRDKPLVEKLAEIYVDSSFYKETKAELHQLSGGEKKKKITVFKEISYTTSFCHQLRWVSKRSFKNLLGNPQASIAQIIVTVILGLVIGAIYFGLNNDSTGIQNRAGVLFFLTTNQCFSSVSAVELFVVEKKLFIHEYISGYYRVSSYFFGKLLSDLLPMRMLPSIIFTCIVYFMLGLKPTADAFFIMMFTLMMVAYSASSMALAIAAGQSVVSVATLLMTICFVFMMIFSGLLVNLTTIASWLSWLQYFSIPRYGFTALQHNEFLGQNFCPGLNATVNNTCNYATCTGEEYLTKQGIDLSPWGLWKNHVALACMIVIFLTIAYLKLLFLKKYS
The experiment is described as follows: flow cytometry on cells expressing cynomolgus ABCG2.
Method: as §1

For experiment [3], the target named is T2, cynomolgus ABCG2 (Macaca fascicularis). Put plainly: flow cytometry on cells expressing cynomolgus ABCG2; paragraph 395: non-significant binding = -.
Method: as §1

B1: G2.302 Humanized (antibody, human IgG1, V domains shown)
VH: EIQLVQSGAEVKKPGASVKVSCKASGYTFTDYYINWVRQAPGQRLEWIGWIYPGNVNVKYNEKFKGRATLTVDTSASTGYMELSSLRSEDTAVYFCARSIGLRYFDNWGQGTLVTVSS
VL: EKVLTQSPATLSLSPGERATLSCRASSSVHYMYWHQQKPGQSPRLWIYYTSNLAPGVPARFSGSGSGNDYTLTISSLEPEDFAVYYCQQFTTSTWTFGGGTKLEIK
On to B1, for which binding in experiment [1] was put at a Kd of 59 nM. Besides, the binding result in experiment [2] was “binds”.

B2: G2.343 rat (antibody, human IgG1, V domains shown)
VH: SVQLKESGPGLVQPSQTLSLTCTVSGFSLTSNGVSWVRQPPGKGLEWIAAISSGGSTYYNSVLKSRLSISRDTSKSQVFLKMNSLQTEDTAIYFCTRDTYYGYNQIPFVYWGQGTLVTVSS
VL: DVVLAQTPPTLSATIGQSVSISCRSSQSLLHSSGNTYLNWLLQRPGQPPQLLIYLVSRLESRVPNRFSGSGSGTDFTLKISGVEAEDLGVYYCVQSTHAPRTFGGGTKLELK
notes: Variable regions cloned onto human IgG1 constant heavy chain and human kappa constant light chain
In experiment [1], B2 came in with a dissociation constant Kd of 40 nM. Besides, the binding result in experiment [2] was “binds”.

B3: G2.346 rat (antibody, human IgG1, V domains shown)
VH: SVQWKESGPGLVQPSQTLSLTCTVSGFSLTSNGVSWVRQPPGKGLEWIAAISSGGSTYYNSGLKSRLSISRDTSKSQVFLKMNSLQTEDTAIYFCTRAGYYGYNPIWFTYWGQGTLVTVSS
VL: DVVMTQTPPTLSATIGQSVSISCRSSQSLLHGSGNTYLNWLLQRPGQPPQILIYLVSRLESRVPKRFSGSGSGTDFTLKISGVEADDLGVYYCVQSTHAPFTFGSGTKLELK
notes: as for B2
Molecule B3 gave an equilibrium dissociation constant (Kd) in experiment [1] of 168 nM. Also, the binding result in experiment [2] was “binds”.

B4: G2.420 rat (antibody, human IgG1, V domains shown)
VH: SVQLMESGPGLVQPSQTLSLTCTVSGFSLNSYNVNWVRQPPGKGLEWIAAISSGGSTYYNSVLKSRLSITRDTSKSQVFLKMNSLQTEDTAMYFCARSGYYSSYMNWGQGVMVTVSS
VL: DVVMTQTPPTLSATIGQSVSISCRSSQSLLHSTGNTYLNWLLQRPGQPPQLLIYLVSRLEYGVPNRFSGSGSGTDFTLKISGVEAEDLGVYYCAQSTHALNTFGAGTKLELK
notes: Variable regions cloned onto human IgG1 constant heavy chain and human kappa constant light chain; also called G.420; KNJY-G2-420
As to B4, the Kd in experiment [1] was found to be 56 nM. Also, the binding result in experiment [2] is “binds”.

B5: G2.65 mouse (antibody, human IgG1, V domains shown)
VH: QGQMHQSGAELVKPGASVKLSCKTSGFTFNSGYISWLKQKPRQSLEWIAWIYAGTGISNFNQKFTGKAQLTVDTSSSTAYMQLSSLTSADSAIYFCASGARKTLDFWGQGTSVTVSS
VL: DIQMTQSSSYLSVSVGGRVTITCKASDQINYWLAWYQQKPGNAPRLLISGATSLETGVPSRFSGSGSGKDYTLSITSFQTEDVATYYCQQYWTTPYTFGGGTKVEIK
notes: Variable regions cloned onto human IgG1 constant heavy chain and human kappa constant light chain; also called KNJY-G2-65
As to B5, the binding result in experiment [3] is “no binding”. In experiment [1], this molecule showed a Kd of 179 nM.

B6: G2.348 rat (antibody, human IgG1, V domains shown)
VH: EVQLVESGPGLMQPSQTLSLTCTVSGFSLTSNGVSWVRQPPGKGLEWIATISSGGNTNYNSALKSRLSISRDTSKSQVFLKMNSLQTEDTAIYFCTRVGYYGYNPIWFAYWGQGTLVTVSS
VL: DVVMTQTPPTLSATIGHSVSISCRSSQSLFHSSGNTYLSWFLQRPGQPPQLLIYLVSRLESRVPNRFSGSGSGTDFTLKISVLEAEDLGVYYCVQTTHAPFTFGSGTKLEIK
notes: as for B2
Regarding B6, in experiment [1], the equilibrium dissociation constant (Kd) is 80 nM. The binding result in experiment [2] is “binds”.

B7: G2.302 mouse (antibody, human IgG1, V domains shown)
VH: QIQLQQSGPELVRPGASVKISCKASGYTFTDYYINWVKQRPGQGLEWIGWIYPGNVNVKYNEKFKGKATLTVDTSSSTGYMQLRSLTSEDSAVYFCARSIGLRYFDNWGQGTTLTVSS
VL: EKVLTQSPAIMSASLGEKVTMSCRASSSVHYMYWHQQKSDASPRLWIYYTSNLAPGVPARFSGSGSGNFYSLTISSVEDEDGATYYCQQFTTSTWTFGGGTKLEIK
notes: Variable regions cloned onto human IgG1 constant heavy chain and human kappa constant light chain; also called G.302
In the case of B7, binding in experiment [1] was characterised by a dissociation constant (Kd) of 25 nM. Also, the binding result in experiment [2] was “binds”.

B8: G2.173 mouse (antibody, human IgG1, V domains shown)
VH: QVQLQQSGADLVRPGASVKLSCTASGFNIKDDYVHWVKQRPEQGLEWIGRIDPANGNTRYAPKFRGKATMTADTSSNTAYLQLSSLTSADTAVYYCSPPLWVGGFAYWGQGTLVTVSS
VL: DVVMTQTPLSLPVSLGDQASISCRSSQSLVHSDVNTYLHWYLQRPGQSPKLLIYKVSNRFSGVPDRFSGSGSGTDFTLKISRVESEDLGIYFCSQTTHVPYTFGGGTKLEIK
notes: as for B2
Take B8: the binding result in experiment [3] is “no binding”. This molecule came in with an equilibrium dissociation constant (Kd) in experiment [1] of 17 nM.

B9: G2.173 Humanized 1 (antibody, human IgG1, V domains shown)
VH: EVQLVQSGAEVKKPGASVKVSCKASGFNIKDDYVHWVRQAPGQGLEWIGRIDPANGNTRYAPKFRGRATMTADTSISTAYMELSRLRSDDTAVYYCSPPLWVGGFAYWGQGTLVTVSS
VL: DVVMTQSPLSLPVTLGQPASISCRSSQSLVHSDVNTYLHWYQQRPGQSPRLLIYKVSNRFSGVPDRFSGSGSGTDFTLKISRVEAEDVGVYFCSQTTHVPYTFGGGTKLEIK
Take B9: in experiment [3], the binding result is reported as “no binding”. Also, in experiment [1], binding was characterised by a dissociation constant (Kd) of 46 nM.

B10: G2.173 Humanized 2 (antibody, human IgG1, V domains shown)
VH: EVQLVQSGAEVKKPGASVKVSCKASGFNIKDDYVHWVRQAPGQGLEWIGRIDPAQGNTRYAPKFRGRATMTADTSISTAYMELSRLRSDDTAVYYCSPPLWVGGFAYWGQGTLVTVSS
VL: DVVMTQSPLSLPVTLGQPASISCRSSQSLVHSDVNTYLHWYQQRPGQSPRLLIYKVSNRFSGVPDRFSGSGSGTDFTLKISRVEAEDVGVYFCSQTTHVPYTFGGGTKLEIK
B10: the binding result in experiment [3] was “no binding”. The dissociation constant Kd in experiment [1] came to 273 nM.

B11: G2.257 mouse (antibody, human IgG1, V domains shown)
VH: EVQLQQSGPELVKPGASLKISCKTFGYSFTGYYMHWVKQSPEKSLEWIGKIVPSTGGTTYNQKFKAKATLTVDKSSFTAYMQLKSLTTEDSAVYYCAREKVYGYDVYYFDYWGQGTTLTVSS
VL: DIQMTQTPSSLSASLGDRVTITCSTSQGVRSYLNWYQQKPDGSVKLLIYYTSSLHSGVPSRFSGSGSGTDYSLTISNLEPEDIATYYCQQYSKLPYTFGGGTKLELK
notes: as for B2
B11 had a Kd in experiment [1] of 7.9 nM. Moreover, in experiment [2], the binding result is “binds”.

B12: G2.630 rat (antibody, human IgG1, V domains shown)
VH: EVQLVESGPGLVKPSQSLSLTCSVTGYTITSGYDWTWIRKFPGNKMEWMGYISYSGFTNYNPSLRSRISITRDTSKNQFFLQLNSVTTEDTATYYCTRTRGYNPFAYWGQGTLVTVSS
VL: DVVMTQSPSLLSASVGDRVTLSCKAGRNINNYLAWYQQKLGKAPKLLIYNTNSLQTGIPSRFSGSGSGTDFTLTISSLQPEDVATYFCQQYNSWTTFGSGTKLEIK
notes: as for B2
For the molecule B12, the binding result in experiment [2] is listed as “binds”.

B13: G2.318 rat (antibody, human IgG1, V domains shown)
VH: EVKLLESGPGLVKPSQSLSLTCSVTGYTITSGYDWSWIRKFPGNKMEWMGYISYSGWTNYNPSLRSRISISRDTSKNQFFLQLNSVTTEDTATYYCARVRGYNPFAYWGQGTLVTVSS
VL: DIVMTQSPSLLSASVGDRVTLSCKAGQNINNYLAWYQQKLGEAPKLLIYNANSLQTGIPSRFSGSGSGTDFTLTISSLQPEDVATYFCQQYNSWTTFGSGTKLEIK
notes: as for B2
Consider B13, for which the binding result in experiment [2] was “binds”.

B14: G2.320 rat (antibody, human IgG1, V domains shown)
VH: EVQLEESGPGLVKPSQSLSLTCSVTGYTITSGYDWTWIRKFPGNKMEWMGYISYSGFTNYNPSLRSRISITRDTSKNQFFLQLNSVTTEDTATYYCTRTRGYNPFAYWGQGASVSSAS
VL: DIVMTQSPSLLSASVGDRVTLSCKAGRNINNYLAWYQQKLGKAPKLLIYNTNSLQTGIPSRFSGSGSGTDFTLTISSLQPEDVATYFCQQYNSWTTFGSGTKLEIK
notes: as for B2
With B14, the binding result in experiment [2] is “binds”.

B15: G2.394 rat (antibody, human IgG1, V domains shown)
VH: EVQLKESGPGLVQPSQTLSLTCTVSGFSLTDYTITWVRQPPGKGLEWIAATSVGGATHYNSPLKSRLSISGDTSKSQVFLKMNSLRTEDTAMYFCVRSGYYSTYMNWGRGTMVTVSS
VL: DVVMTQTPPTFSATIGQSVSISCRSSQSLLHSSGNTFLSWLLQRPGQPPQLLIYLVSRLEFGVPNRFSGSGSGTDFTLKISGVEAEDLGVYYCVQSTHVMNTFGAGTKLEIK
notes: as for B2
As to B15, the Kd in experiment [1] came to 88 nM. For the same molecule, the binding result in experiment [2] was “binds”.

For the origin of these results see patent US20230212305A1 (published 2023).
